# Measured values reported in patent US20240261333A1, “NOVEL TARGETS FOR ENHANCING ANTI-TUMOR IMMUNITY” (THE BROAD INSTITUTE, INC., priority 2021, published 2024).
# T1: B3GNT2 (Homo sapiens, UniProt Q9NY97)
# T1 construct: The respective ORFs of candidate genes [CD274 (NM_014143), MCL1 (NM_021960), JUNB (NM_002229), and B3GNT2 (NM_006577)] were synthesized; expressed in transfected cells; host or cells: A375 melanoma cells (lentiviral ORF overexpression)
# T1 sequence (Q9NY97 1-397): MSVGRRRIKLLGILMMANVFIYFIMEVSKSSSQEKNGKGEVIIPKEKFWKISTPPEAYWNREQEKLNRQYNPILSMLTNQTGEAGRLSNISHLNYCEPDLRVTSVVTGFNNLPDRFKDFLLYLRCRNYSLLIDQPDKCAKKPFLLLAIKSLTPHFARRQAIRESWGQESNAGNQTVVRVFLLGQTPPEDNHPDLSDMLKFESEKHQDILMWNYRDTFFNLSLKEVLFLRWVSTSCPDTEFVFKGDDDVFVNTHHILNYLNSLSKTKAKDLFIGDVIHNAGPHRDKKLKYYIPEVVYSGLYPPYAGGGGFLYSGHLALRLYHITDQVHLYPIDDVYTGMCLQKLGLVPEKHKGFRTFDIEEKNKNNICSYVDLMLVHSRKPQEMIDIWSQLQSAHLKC
# B1: PJA2 (protein)
# chain: SQYTEKEPAAMDQESGKAVWPKPAGGYQTITGRRYGRRHAYVSFKPCMTRHERSLGRAGDDYEVLELDDVPKENSSGSSPLDQVDSSLPSEPIFEKSETEIPTCGSALNQTTESSQSFVAVHHSEEGRDTLGSSTNLHNHSEGEYIPGACSASSVQNGIALVHTDSYDPDGKHGEDNDHLQLSAEVVEGSRYQESLGNTVFELENREAEAYTGLSPPVPSFNCEVRDEFEELDSVPLVKSSAGDTEFVHQNSQEIQRSSQDEMVSTKQQNNTSQERQTEHSPEDAACGPGHICSEQNTNDREKNHGSSPEQVVRPKVRKLISSSQVDQETGFNRHEAKQRSVQRWREALEVEESGSDDLLIKCEEYDGEHDCMFLDPPYSRVITQRETENNQMTSESGATAGRQEVDNTFWNGCGDYYQLYDKDEDSSECSDGEWSASLPHRFSGTEKDQSSSDESWETLPGKDENEPELQSDSSGPEEENQELSLQEGEQTSLEEGEIPWLQYNEVNESSSDEGNEPANEFAQPAFMLDGNNNLEDDSSVSEDLDVDWSLFDGFADGLGVAEAISYVDPQFLTYMALEERLAQAMETALAHLESLAVDVEVANPPASKESIDGLPETLVLEDHTAIGQEQCCPICCSEYIKDDIATELPCHHFFHKPCVSIWLQKSGTCPVCRRHFPPAVIEASAAPSSEPDPDAPPSNDSIAEAP
# B2: STAU2 (protein)
# chain: MANPKEKTAMCLVNELARFNRVQPQYKLLNERGPAHSKMFSVQLSLGEQTWESEGSSIKKAQQAVANKALTESTLPKPVQKPPKSNVNNNPGSITPTVELNGLAMKRGEPAIYRPLDPKPFPNYRANYNFRGMYNQRYHCPVPKIFYVQLTVGNNEFFGEGKTRQAARHNAAMKALQALQNEPIPERSPQNGESGKDVDDDKDANKSEISLVFEIALKRNMPVSFEVIKESGPPHMKSFVTRVSVGEFSAEGEGNSKKLSKKRAATTVLQELKKLPPLPVVEKPKLFFKKRPKTIVKAGPEYGQGMNPISRLAQIQQAKKEKEPDYVLLSERGMPRRREFVMQVKVGNEVATGTGPNKKIAKKNAAEAMLLQLGYKASTNLQDQLEKTGENKGWSGPKPGFPEPTNNTPKGILHLSPDVYQEMEASRHKVISGTTLGYLSPKDMNQPSSSFFSISPTSNSSATIARELLMNGTSSTAEAIGLKGSSPTPPCSPVQPSKQLEYLARIQGFQAALSALKQFSEQGLDPIDGAMNIEKGSLEKQAKHLREKADNNQAPPGSIAQDCKKSNSAV
# B3: STAU1 (protein)
# chain: MKLGKKPMYKPVDPYSRMQSTYNYNMRGGAYPPRYFYPFPVPPLLYQVELSVGGQQFNGKGKTRQAAKHDAAAKALRILQNEPLPERLEVNGRESEEENLNKSEISQVFEIALKRNLPVNFESFPLKQVARESGPPHMKNFVTKVSVGEFVGEGEGKSKKISKKNAAIAVLEELKKLPPLPAVERVKPRIKKKTKPIVKPQTSPEYGQGINPISRLAQIQQAKKEKEPEYTLLTERGLPRRREFVMQVKVGNHTAEGTGTNKKVAKRNAAENMLEILGFKVPQAQPTKPALKSEEKTPIKKPGDGRKVTFFEPGSGDENGTSNKEDEFRMPYLSHQQLPAGILPMVPEVAQAVGVSQGHHTKDFTRAAPNPAKATVTAMIARELLYGGTSPTAETILKNNISSGHVPHGPLTRPSEQLDYLSRVQGFQVEYKDFPKNNKNEFVSLINCSSQPPLISHGIGKDVESCHDMAALNILKLLSELDQQSTEMPRTGNGPMSVCGRC
# B4: GANAB (protein)
# chain: ITLAVDRSNFKTCEESSFCKRQRSIRPGLSPYRALLDSLQLGPDSLTVHLIHEVTKVLLVLELQGLQKNMTRFRIDELEPRRPRYRVPDVLVADPPIARLSVSGRDENSVELTMAEGPYKIILTARPFRLDLLEDRSLLLSVNARGLLEFEHQRAPRVSQGSKDPAEGDGAQPEETPRDGDKPEETQGKAEKDEPGAWEETFKTHSDSKPYGPMSVGLDFSLPGMEHVYGIPEHADNLRLKVTEGGEPYRLYNLDVFQYELYNPMALYGSVPVLLAHNPHRDLGIFWLNAAETWVDISSNTAGKTLFGKMMDYLQGSGETPQTDVRWMSETGIIDVFLLLGPSISDVFRQYASLTGTQALPPLFSLGYHQSRWNYRDEADVLEVDQGFDDHNLPCDVIWLDIEHADGKRYFTWDPSRFPQPRTMLERLASKRRKLVAIVDPHIKVDSGYRVHEELRNLGLYVKTRDGSDYEGWCWPGSAGYPDFTNPTMRAWWANMFSYDNYEGSAPNLFVWNDMNEPSVFNGPEVTMLKDAQHYGGWEHRDVHNIYGLYVHMATADGLRQRSGGMERPFVLARAFFAGSQRFGAVWTGDNTAEWDHLKISIPMCLSLGLVGLSFCGADVGGFFKNPEPELLVRWYQMGAYQPFFRAHAHLDTGRREPWLLPSQHNDIIRDALGQRYSLLPFWYTLLYQAHREGIPVMRPLWVQYPQDVTTFNIDDQYLLGDALLVHPVSDSGAHGVQVYLPGQGEVWYDIQSYQKHHGPQTLYLPVTLSSIPVFQRGGTIVPRWMRVRRSSECMKDDPITLFVALSPQGTAQGELFLDDGHTFNYQTRQEFLLRRFSFSGNTLVSSSADPEGHFETPIWIERVVIIGAGKPAAVVLQTKGSPESRLSFQHDPETSVLVLRKPGINVASDWSIHLR
# B5: CTHRC1 (protein)
# chain: MWPPGRSITVKLREKTVSRKLEMNGPSAFQGLICGKYNGMCLQGPAGVPGRDGSPGANGIPGTPGIPGRDGFKGEKGECLRESFEESWTPNYKQCSWSSLNYGIDLGKIAECTFTKMRSNSALRVLFSGSLRLKCRNACCQRWYFTFNGAECSGPLPIEAIIYLDQGSPEMNSTINIHRTSSVEGLCEGIGAGLVDVAIWVGTCSDYPKGDASTGWNSVSRIIIEELPK
# Target: T1, B3GNT2
# Assay: Co-IP of FLAG-tagged B3GNT2 followed by mass spectrometry
# Format: cell-based
# Design: C-term IgG / C-term flag: unit not given here
# Conditions: Co-IP with FLAG antibody, C-terminally FLAG-tagged B3GNT2; mass spectrometry count, unit not given
# Procedure, shortened: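 Co-purifying proteins were identified by fractionated nano-LC–MS/MS on an Orbitrap Elite, run data-dependent. Beforehand, lysates in 1% Triton X-100/HEPES buffer were incubated overnight at 4° C with anti-FLAG or […] and pulled down on Protein A/G magnetic beads for 4 h. Duplicate biological replicates.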
row,C-term flag,Molecule
1,2,B1
2,2,B2
3,6,B3
4,8,B4
5,2,B5

# Same assay, conditions: Co-IP with FLAG antibody, N-terminally FLAG-tagged B3GNT2; mass spectrometry count, unit not given
row,N-term FLAG,Molecule
1,0,B1
2,0,B2
3,2,B3
4,0,B4
5,0,B5

# Same assay, conditions: Co-IP with IgG control antibody, C-terminally FLAG-tagged B3GNT2; mass spectrometry count, unit not given
row,C-term IgG,Molecule
1,0,B1
2,0,B2
3,0,B3
4,0,B4
5,0,B5

# Same assay, conditions: Co-IP with IgG control antibody, N-terminally FLAG-tagged B3GNT2; mass spectrometry count, unit not given
row,N-term IgG,Molecule
1,0,B1
2,0,B2
3,0,B3
4,0,B4
5,0,B5
